Some results are limits rather than exact numbers.

T1: recombinant YFV-17D DIII protein (Yellow fever virus, strain 17D, UniProt P03314 578-682)
T1 construct: also called domain III
T1 sequence: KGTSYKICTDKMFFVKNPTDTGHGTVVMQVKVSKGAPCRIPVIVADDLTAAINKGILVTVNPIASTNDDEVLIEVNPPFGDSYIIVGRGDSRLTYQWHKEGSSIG

B1: ADI-45078 (antibody, V domains shown)
VH: EVQLVESGGGLIQPGGSLRLSCAASGFSFSSHAMTWVRQAPGKGLQWVSSIRGSDRTTNYADSVKGRFTVSRDNSKNTLYLQMNSLRAEDTAIYYCAKYYDSSGYYYFDHWGQGTLVTVSS
VL: DIRMTQSPSTLSASIGDRVTITCRASQSISDWLAWYLQKPGKAPSLLIYRASSLETGVPSRFSGRGSGTEFTLTISSLQPDDFGTYYCQQYNRDPYTFGQGTKVDIK
notes: full-length IgG; also called Antibody Number 82
B2: ADI-48910 (antibody, V domains shown)
VH: EVQLVQSGGGLVQRGGSLRLSCAASGFTFSSYAMTWVRQAPGKGLEWVSDMNHSGDRTNYADSVRGRFTISRDNSKNTLYLQMNSLRAEDTAVYYCAKYYDSSGYYYFHSWGQGTLVTVSS
VL: DIRLTQSPSTLSASVGDRVSITCRASQSISDWLAWYQQKPGKAPKLLIYRASGLETGVPSRFSGSGSGTEFTLTISSLQPDDFATYYCQQYNRYPYTFGQGTKVDIK
notes: full-length IgG; also called Antibody Number 94
B3: ADI-42844 (antibody, V domains shown)
VH: QVQLVESGGGVVQPGRSLRLSCTASGFTFSSYGMHWVRQAPGKGPEWVAVISYDGSKKYFADSVKGRFTISRDNSKNTLYLQMNSLRAEDTAVYSCAKGYDSNGYYYIDYWGQGTPVTVSS
VL: DIRVTQSPSTLSASVGDRVTITCRASQSISSWLAWYQQKPGKAPKLLIYRASSLESGVPSRFSGSGSGTEFTLTISSLQPDDFATYYCQQYNRYPYTFGQGTKVEIK
notes: full-length IgG; also called Antibody Number 91
B4: ADI-42212 (antibody, V domains shown)
VH: EVQLVESGGGLVQPGGSLRLSCAASGFTFSDHYMDWVRQAPGKGLEWVGRSRNKPNSYITEYAASVKGRFTISRDDSKNSLYLQMNSLKTEDTAVYYCSRHMGFGLDLWGQGTLVTVSS
VL: SYELTQPPSVSVSPGQTATITCSGDKLGYTYTCWYQQKPGQSPVLVIYQDTKRPSGIPERFSGSNSGNTATLTITGTQAMDEADYYCQAWDTTTAGGVFGGGTKLTVL
notes: full-length IgG; also called Antibody Number 99
B5: ADI-45076 (antibody, V domains shown)
VH: EVQLVESGGGFVQPGGSLRLSCAASGFIFSDYYMDWVRQAPGKGLEWVGRIRNKPNSYTTEYAASVKGRFSISRDDLKNSLYLQMNSLKTEDTAEYYCARVDGEEVALIYWGQGALVTVSS
VL: DIQMTQSPSSLSASVGDRVTITCRASQTITRYMNWYQQKPGEAPKLLIYATSSLQSGVPSRFSGSGSGTDFTLTITNLQPADFATYYCQQSSTTRWTFGQGTKVDIK
notes: full-length IgG; also called Antibody Number 97
B6: ADI-42193 (antibody, V domains shown)
VH: EVQLLESGGGLVQPGGSLRLSCAASGFIFSDHYMAWVRQAPGKGLEWVGRSRNRPNSYTTEYAASAKGRFTISRDDSKTSLYLQMNSLKTEDTAVYYCAREHGDYGLDYWGQGTLVTVSS
VL: QPVLIQPPSASGTPGQRVTISCSGSSSNFGSNFVYWYQQLPGTAPKLLIYRVNQRPSGVPDRFSGSKSGTSASLAISGLRSEDEADYYCATWDVSLSNDVLFGGGTKLTVL
notes: full-length IgG; also called Antibody Number 95
B7: ADI-42223 (antibody, V domains shown)
VH: EVQLVESGGGLVQPGGSLRLSCAASGFTFSDYYMDWVRQAPGKGLEWVGGIRNKPNSYTTEYAASVKGRFTISRDDSKNSLFLQMNSLKTEDTAVYYCVRLYGDYVAYFDYWGQGTLVTVSS
VL: DIQLTQSPSSLSASVGDRVTITCRASQSISQYLNWYQQKPGKAPKLLISPASSFQSGVPSRFSGSGSGTDFTLTITSLQPEDFATYYCQQSYSTPWTFGQGTKVDIK
notes: full-length IgG; also called Antibody Number 84
B8: ADI-42189 (antibody, V domains shown)
VH: EVQLVESGGGVVQPGWSLRLSCAVSGFTFSSYAMHWVRQAPGKGLEWVAVISYDGSYKWYADSVKGRFTISRDNSKNTVYLQMNSLRAEDTAVYYCASLWFIVMTMSKNPETDYWGQGTLVTVSS
VL: DIQVTQSPSSLSASVGDRVTITCRASQGIRNDLAWYQQRPGKAPKRLIYAASSLQSGVPSRFSGSGSGTEFTLTISSLQPEDFATYYCLQHHSYPWTFGQGTKVEIK
notes: full-length IgG; also called Antibody Number 81
B9: ADI-45090 (antibody, V domains shown)
VH: EVQLVESGGGLVQPGRPLRLSCAASGFAFSSYGMHWVRQAPGKGLEWVALIRFDGTIKYYADSVKGRFTISRDNAKNTLYLQMSSLRAEDTAVYYCARDLEVGAEYLYYHYGMDVWGQGTTVTVSS
VL: QPVLTQPPSASGTPGQRVTIFCSGSRSNIGTYTINWYQKLPGTAPKLLIYSNNRGPSGVPDRFSGSQSGTSASLAISGLQPEDEADYYCAAWDDSLNGWVFGGGTKVTVL
notes: full-length IgG; also called Antibody Number 4
B10: ADI-42192 (antibody, V domains shown)
VH: EVQLLESGPGLVKPSQTLSLTCSVSGGSISSGGYYWTWIRQPPGKGLEWIGYIYYTGSTYYNPSLKSRVTISVDTSKNQFSLKLSSVTAADTAVYFCARAEYDTSGYYQQRLPEYFQHWGQGTLVTVSS
VL: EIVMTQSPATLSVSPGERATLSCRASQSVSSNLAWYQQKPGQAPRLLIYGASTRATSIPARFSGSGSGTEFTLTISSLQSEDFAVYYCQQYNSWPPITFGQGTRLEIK
notes: full-length IgG; also called Antibody Number 93
B11: ADI-49147 (antibody, V domains shown)
VH: QVQLQESGGDLVQPGGSLRLSCAASGFTFSNYAMNWVRQAPGKGLEWVSAINRGGDSTYYADSVKGRFTISRDNSKNTLYLQMNSLRAEDTAVYYCAKDHGGKYGWWYFDLWGRGTLVTVSS
VL: DIRVTQSPATLSVSPGERATLSCRASQSVSSNLAWYQQKPGQAPRLLIYDASNRATGIPVRFSGSGSGTDFTLTISSLQSEDFAVYYCQQYDNWPLTFGGGTKVEIK
notes: full-length IgG; also called Antibody Number 2
B12: ADI-42787 (antibody, V domains shown)
VH: EVQLVESGGGVVQSGRSLRLSCAASGFTFSGNAMHWVRQAPGKGLEWVAVILYDGSNQYYADSVKGRFTISRDNSKNTLYLQMNSLRPADTAVYYCARASMMPRPPVHDYWGQGTLVTVSS
VL: DIRVTQSPATLSVSPGERATLSCRASQRVNSNLAWYQQKPGQAPRLLIYGASTRATGIPVRFSGSGSGTEFTLTISSLQSEDFAVYYCQQYNTWWTFGQGTKVEIK
notes: full-length IgG; also called Antibody Number 87
B13: ADI-46742 (antibody, V domains shown)
VH: QVQLQESGPGLVKPSETLSLTCTVSGASIRSYLWSWIRQPPGKELEWLGSIYHSGSTKYNPSLKSRVTISADTSKNQFSLKLNSVTAADTAVFYCARETANNWFDPWGQGTLVTVSS
VL: SYELTQPPSVSVAPGQTARIICGGNYIGGKSVHWYQQKPGQAPVLVVYNDNDRPSGIPERFSGSNSGNTATLTISRVAAGDEADYYCQVWDNSSDRRVFGGGTKLTVL
notes: full-length IgG; also called Antibody Number 86
B14: ADI-45161 (antibody, V domains shown)
VH: QVQLQESGGGVVQPGRSLRLSCAASGFTFSSYGMHWVRQAPGKGLEWVAVIWYDGSNKYYADSVKGRFTISRDNSKNTLYLQMNSLRAEDTAVYYCARDVGYQLLQVYGMDVWGQGTTVTVSS
VL: QSALTQPASVSGSPGQSITISCTGTSSDVGGYNYVSWYQQHPGKAPKLMIYEVSNRPSGVSNRFSGSKSGNTASLTISGLQAEDEADYYCSSYTSSSTLDVVFGGGTKLTVL
notes: full-length IgG; also called Antibody Number 92
B15: ADI-48435 (antibody, V domains shown)
VH: QVQLVQSGAEVKKPGASVKVSCKASGYTFTSYGISWVRQAPGQGLEWMGWISAYNGNTNYAQKLQGRVTMTTDTSTSTAYMELRSLRSDDTAVYYCARRGTTVTRFGVIQYYYGMDVWGQGTTVTVSS
VL: QSVLTQPASVSGSPGQSITISCTGTSSDVGGYNYVSWYQQHPGKAPKLMIYDVSNRPSGVSNRFSGSKSGNTASLTISGLQAEDEADYYCSSYTSSSTLVFGGGTQLTVL
notes: full-length IgG; also called Antibody Number 85
B16: ADI-45083 (antibody, V domains shown)
VH: QVQLVESGPGLVKPSGTLSLTCAVSGGSISSDYWWSWVRQPPGKGLEYIGEIYHTGSTNYNPSLKSRVTVSLDRSKNVFSLTLRSVTAADTAVYYCARSHWRSPQSVTFDLWGQGTTVTVSS
VL: QPVLTQPPSVSAAPGQKVTISCSGSNSNIGNYYVSWYQQFPGTAPKLLIYDNNKRPSGIPDRFSGSKSGTSATLAITGLQTGDEAHYYCGTWDTSSLSAGRVFGGGTKLTVL
notes: full-length IgG; also called Antibody Number 9
B17: ADI-48968 (antibody, V domains shown)
VH: EVQLLESGGGLGQPGGSLRLSCVASKFTFSDHYMDWVRQAPGKGLEWVGRIRNKPNGYTTEYAASVKGRFIISRDDSKNSLYLQMKSLKIEDTAIYYCVRVWGGEAARYDYWGQGALVTVSS
VL: DIRLTQSPSSLSASVGDRVTITCRASQDIRKFLNWYQQKLGKAPSLLIYGASSLQSGVPSRFSGSGSGTDFTLTISSLQPEDFAIYYCQHASTTPWTFGQGTKVEIK
notes: full-length IgG; also called Antibody Number 98
B18: ADI-49141 (antibody, V domains shown)
VH: EVQLQESGPGLVKPSGTLSLTCAVSGGSISSSNWWTWVRQPPGKGLEWIGEIYHSGSTNYNPSLESRVTMSVDKSKNQFSLKLSSVTAADTAVYYCARVQTSHSELWFGEFGADWGQGTLVTVSS
VL: DIVMTQSPATLSVSPGERATLSCRASQSVSSNLAWYQQKPGQAPRLLIYGASTRATGIPARFSGSGSGTEFTLTISSLQSEDFAVYSCQQYNTWPKTFGQGTKVEIK
notes: full-length IgG; also called Antibody Number 89
B19: ADI-49590 (antibody, V domains shown)
VH: QVQLVQSGAEVKKPGASVKVSCKASGYTFTGYYMHWVRQAPGQGLEWMGRINPNSGGTNYAQKFQGRVTMTRDTSISTAYMELSRLRSDDTAVYYCYVDYYYDSSGYYSPFDYWGQGTLVTVSS
VL: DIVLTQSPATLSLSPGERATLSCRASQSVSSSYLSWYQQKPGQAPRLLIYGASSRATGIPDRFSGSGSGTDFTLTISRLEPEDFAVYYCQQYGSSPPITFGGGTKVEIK
notes: full-length IgG; also called Antibody Number 96
B20: ADI-42213 (antibody, V domains shown)
VH: EVQLLESGGGLVQPGGSLRLSCAASGFTFTYYAMSWVRQAPGKGLEWVSGISGSGDSTYNADSVKGRVTISRDNSKNTLYLQMNSLRAEDTAVYYCAKDGGYSTDWYFDLWGRGTLVTVSS
VL: EIVLTQSPGTLSLSPGERATLSCRASQSVSSSFLAWYQQKPGQAPRLLIYGASSRATGIPDRFSGSGSGTDFTLTIRRLEPEDFAVYYCQQYGSSRRTFGQGTKVEIK
notes: full-length IgG; also called Antibody Number 90
B21: ADI-49162 (antibody, V domains shown)
VH: EVQLVESGGTFLQPGGSLRLSCVASGFTFGTHAMSWVRQAPGKGLEWVSTFSGSGGRTYYADSVKGRFTISRDNSKSTLYLEMSALRAEDTAVYYCAKFYDSSGYYYFDYWGQGTLVTVSS
VL: DIQLTQSPSTLSASVGDRVTVTCRASQNVGGWLAWYQQKPGKAPKLLIFQASRLENGVPSRFSANASGTEFTLTIGSLQPDDFATYYCQQYNTYPYTFGQGTKVDIK
notes: full-length IgG; also called Antibody Number 83

T2 sequence (Q6DV88 286-678): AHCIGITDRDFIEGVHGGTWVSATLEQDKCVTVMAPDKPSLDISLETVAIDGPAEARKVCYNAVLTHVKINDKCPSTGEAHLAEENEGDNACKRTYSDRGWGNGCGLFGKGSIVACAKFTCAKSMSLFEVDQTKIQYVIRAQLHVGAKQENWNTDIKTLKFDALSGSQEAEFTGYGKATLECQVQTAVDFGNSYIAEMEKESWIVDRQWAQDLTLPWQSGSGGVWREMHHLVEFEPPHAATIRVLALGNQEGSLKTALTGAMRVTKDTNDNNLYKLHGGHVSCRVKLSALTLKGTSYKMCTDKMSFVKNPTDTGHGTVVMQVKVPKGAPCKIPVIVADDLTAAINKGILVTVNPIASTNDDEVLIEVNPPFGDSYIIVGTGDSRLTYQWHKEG

One assay addresses T2, recombinant YFV E protein (soluble E, sE; YFV Asibi strain) (Yellow fever virus, Asibi strain, UniProt Q6DV88 286-678).
T2 construct: also called YFV E antigen; YFV E monomer
The experiment in a line: BLI monovalent (IgG on tip).
On to B1, for which the equilibrium dissociation constant (Kd) worked out at 5.88 nM.
In the case of B2, the equilibrium dissociation constant (Kd) came out at 2.42 nM.
For the molecule B3, the Kd came to 137 nM.
Consider B4, for which the equilibrium dissociation constant (Kd) came to 0.884 nM.
For B5, the equilibrium dissociation constant (Kd) turned out to be 0.882 nM.
For B6, the dissociation constant Kd is 0.922 nM.
On the same count and under the same terms, next, B7: 1.04 nM; B8: 2.4 nM.
Consider B9, for which the equilibrium dissociation constant (Kd) was determined as 2.11 nM.
For the molecule B10, the dissociation constant (Kd) was found to be 204 nM.
Same read-out and setting: in the case of B11 it was 3.73 nM.
The same measure, in the same setting: in the case of B12 it was 0.45 nM; in that of B13, > 100 nM; in that of B14, > 100 nM.
For the molecule B15, the equilibrium dissociation constant (Kd) was > 100 nM.
For B16, the Kd turned out to be 3.45 nM.
Take B17: the Kd stood at 0.963 nM.
The same measure, in the same setting: in the case of B18 it was 187 nM.
The same measure, in the same setting: next, B19: 109 nM; B20: 15.2 nM; B21: 2.19 nM.

The next assay concerns the target T1, recombinant YFV-17D DIII protein. The experiment in a line: BLI, recombinant YFV-17D DIII protein.
Turning to B9, the binding result was “binds”.
For B11, the binding result is “binds”.

The values are drawn from patent US20240218054A1 (MABLOC, published 2024).
